Measurements taken from paper PMC9040003 (Science (New York, N.Y.), 2022).

Experiments:
Type in all cases: binding, Arabidopsis thaliana
[1] = tested on: FER ectodomain (6×His-tagged); conditions: 6×His-tagged ectodomain purified from insect cells; biotinylated peptide
[2] = tested on: ANJ ectodomain (6×His-tagged); conditions: 6×His-tagged ectodomain purified from insect cells; biotinylated peptide
[3] = tested on: HERK1 ectodomain (6×His-tagged); conditions: 6×His-tagged ectodomain purified from insect cells; biotinylated peptide
[4] = tested on: FER ectodomain (MBP-tagged); conditions: MBP-tagged ectodomain purified from Escherichia coli; biotinylated peptide
[5] = tested on: ANJ ectodomain (MBP-tagged); conditions: MBP-tagged ectodomain purified from Escherichia coli; biotinylated peptide
[6] = tested on: HERK1 ectodomain (MBP-tagged); conditions: MBP-tagged ectodomain purified from Escherichia coli; biotinylated peptide

B1: RALF16: RALF (rapid alkalinization factor) peptide, pollen tube–specific, Arabidopsis (peptide)
peptide: RTLGYGSIKGDRIPACGYKNPNSCVKQPVNHYHRGCEKITRCARDAARYTESFNVDDDESPIINLH
modifications: also: biotin, position not given here
bind: binding to FER ectodomain (pull-down) [1] | binding to ANJ ectodomain (pull-down) [2] | binding to HERK1 ectodomain (pull-down) [3] | binding to FER ectodomain (pull-down) [4] | binding to ANJ ectodomain (pull-down) [5] | binding to HERK1 ectodomain (pull-down) [6]
